Reference: patent US20180016327A1 (Chugai, published 2018)
Where a chain is given by its changes, count along the chain named.

B1: CFP0018 18L 94W (antibody, V domains shown)
VH: QVQLVQSGAEVKKPGSSVKVSCKASGGTFSSYAISWVRQAPGQGLEWMGGIIPIFGTANYAQKFQGRVTITADESTSTAYMELSSLRSEDTAVYYCARQLYGYYELDIWGQGTLVTVSS
VL: DIQMTQSPSSLSASVGDRVTITCRASQSISDDLAWYQQKPGKAPKLLIYEASSLQSGVPSRFSGSGSGTDFTLTISSLQPEDFATYYCQQYNSWPLTFGQGTKVEIK
B2: CFP0015 (antibody, V domains shown)
VH: QVQLLESGGGLVQPGGSLRLSCAASGFTFSSYAMSWVRQAPGKGLEWVSAISGSGGSTYYADSVKGRFTISRDNSKNTLYLQMNSLRAEDTAVYYCARGDQIWYDQWYYFDMWGQGTLVTVSS
VL: B1 VL with S30E, S53N, N92D, W94S
notes: IgG format
B3: CFP0015 15L 30A (antibody, V domains shown)
VH: B2 VH
VL: B1 VL with S30A, S53N, N92D, W94S
B4: CFP0015 15L 31N (antibody, V domains shown)
VH: B2 VH
VL: B1 VL with S30E, D31N, S53N, N92D, W94S
B5: CFP0018 18L 96P (antibody, V domains shown)
VH: B1 VH
VL: B1 VL with W94Y, L96P
B6: CFP0015 15L 31Y (antibody, V domains shown)
VH: B2 VH
VL: B1 VL with S30E, D31Y, S53N, N92D, W94S
B7: CFP0018 18L 96Y (antibody, V domains shown)
VH: B1 VH
VL: B1 VL with W94Y, L96Y
B8: CFP0018 18L 96H (antibody, V domains shown)
VH: B1 VH
VL: B1 VL with W94Y, L96H
B9: CFP0018 18L 96F (antibody, V domains shown)
VH: B1 VH
VL: B1 VL with W94Y, L96F
B10: CFP0015 15L 32S (antibody, V domains shown)
VH: B2 VH
VL: B1 VL with S30E, D32S, S53N, N92D, W94S
B11: CFP0015 15L 30F (antibody, V domains shown)
VH: B2 VH
VL: B1 VL with S30F, S53N, N92D, W94S
B12: CFP0015 15L 30Y (antibody, V domains shown)
VH: B2 VH
VL: B1 VL with S30Y, S53N, N92D, W94S
B13: CFP0015 15L 30S (antibody, V domains shown)
VH: B2 VH
VL: B1 VL with S53N, N92D, W94S
B14: CFP0018 18L 96I (antibody, V domains shown)
VH: B1 VH
VL: B1 VL with W94Y, L96I
B15: CFP0015 15L 30T (antibody, V domains shown)
VH: B2 VH
VL: B1 VL with S30T, S53N, N92D, W94S
B16: CFP0015 15L 32H (antibody, V domains shown)
VH: B2 VH
VL: B1 VL with S30E, D32H, S53N, N92D, W94S
B17: CFP0015 15L 32E (antibody, V domains shown)
VH: B2 VH
VL: B1 VL with S30E, D32E, S53N, N92D, W94S
B18: CFP0015 15L 30Q (antibody, V domains shown)
VH: B2 VH
VL: B1 VL with S30Q, S53N, N92D, W94S
B19: CFP0015 15L 32Q (antibody, V domains shown)
VH: B2 VH
VL: B1 VL with S30E, D32Q, S53N, N92D, W94S
B20: CFP0015 15L 31T (antibody, V domains shown)
VH: B2 VH
VL: B1 VL with S30E, D31T, S53N, N92D, W94S
B21: CFP0015 15L 30H (antibody, V domains shown)
VH: B2 VH
VL: B1 VL with S30H, S53N, N92D, W94S
B22: CFP0015 15L 31A (antibody, V domains shown)
VH: B2 VH
VL: B1 VL with S30E, D31A, S53N, N92D, W94S
B23: CFP0015 15L 31H (antibody, V domains shown)
VH: B2 VH
VL: B1 VL with S30E, D31H, S53N, N92D, W94S
B24: CFP0015 15L 31S (antibody, V domains shown)
VH: B2 VH
VL: B1 VL with S30E, D31S, S53N, N92D, W94S
B25: CFP0018 18L 96V (antibody, V domains shown)
VH: B1 VH
VL: B1 VL with W94Y, L96V
B26: CFP0015 15L 31Q (antibody, V domains shown)
VH: B2 VH
VL: B1 VL with S30E, D31Q, S53N, N92D, W94S
B27: CFP0015 15L 30P (antibody, V domains shown)
VH: B2 VH
VL: B1 VL with S30P, S53N, N92D, W94S
B28: CFP0015 15L 30N (antibody, V domains shown)
VH: B2 VH
VL: B1 VL with S30N, S53N, N92D, W94S
B29: CFP0015 15L 30D (antibody, V domains shown)
VH: B2 VH
VL: B1 VL with S30D, S53N, N92D, W94S
B30: CFP0018 18L 96M (antibody, V domains shown)
VH: B1 VH
VL: B1 VL with W94Y, L96M
B31: CFP0015 15L 31E (antibody, V domains shown)
VH: B2 VH
VL: B1 VL with S30E, D31E, S53N, N92D, W94S
B32: CFP0015 15L 32N (antibody, V domains shown)
VH: B2 VH
VL: B1 VL with S30E, D32N, S53N, N92D, W94S
B33: CFP0018 18L 96W (antibody, V domains shown)
VH: B1 VH
VL: B1 VL with W94Y, L96W

target: T1, human C5 (human, UniProt P01031 19-673; P01031 678-1676, Beta and alpha chains are disulfide-linked and the protein is glycosylated.); assay: Biacore, captured antibody, pH 7.4, 37 C;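 also: biacore binding response of anti-C5 antibody light chain variants captured on chip with human C5 injected, ACES running buffer containing 1.2 mM CaCl₂, parent light chain antibody set to 100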
T1 construct: Either in-house recombinant C5 or plasma derived C5 (CALBIOCHEM) was used; also called recombinant human C5; plasma derived human C5
Experimental: The light chain variants were tested for the binding affinity to C5 at pH 7.4 and at 37 degrees C. using Biacore T200 instrument (GE Healthcare) or Biacore 4000 instrument (GE Healthcare). […] Anti-C5 antibodies were captured on an immobilized molecule, and then human C5 was injected. The running buffer used was pH 7.4 ACES Buffer containing 1.2 mM Ca (20 mM ACES, 150 mM NaCl, 1.2 mM CaCl₂, 0.05% Tween 20). A value, % binding, was determined by normalizing binding response with that of antibody comprising parent light chain as 100.

Row | Binder | % binding (parent = 100) [%]
1 | B1 | 33.7
2 | B2 | 100
3 | B3 | 25.7
4 | B4 | 42.2
5 | B5 | 18
6 | B6 | 102
7 | B7 | 23
8 | B8 | 114
9 | B9 | 31.8
10 | B10 | 167
11 | B11 | 39.7
12 | B12 | 51.3
13 | B13 | 23.1
14 | B14 | 56
15 | B15 | 25.1
16 | B16 | 0.8
17 | B17 | 87.3

Row | Binder | % binding (parent = 100) [%]
18 | B18 | 42.6
19 | B19 | 328
20 | B20 | 15.8
21 | B21 | 18.4
22 | B22 | 30
23 | B23 | 59.4
24 | B24 | 36.5
25 | B25 | 70.3
26 | B26 | 25.8
27 | B27 | 60.9
28 | B28 | 21.4
29 | B29 | 59.9
30 | B30 | 46.2
31 | B31 | 22.4
32 | B32 | 10.9
33 | B33 | 16.9
